Target: SARS-CoV-2 Omicron-S (SARS-CoV-2) (UniProt P0DTC2)
Assay: cryo-EM structure

Work on “SARS-CoV-2 Omicron-S (from UniProt P0DTC2 340-527) (natural protein)” yielded a stoichiometry N of 3.

Source: PMC9080080
